From the RNAGym collection of RNA variant scans (doi:10.1073/pnas.2313332121)
Variants at the floor of the assay were thinned out.

B1: TPR 5TU (parent)
chain: GGAUCUUCUCGAUCUAACAAAAAAGACAAAUCUGCCACAAAGCUUGAGAGCAUCUUCGGAUGCAGAGGCGGCAGCCUUCGGUGGCGCGAUAGCGCCAACGUUCUCAACUAUGACACGCAAAACGCGUGCUCCGUUGAAUGGAGUUUAUCAUG

Variants of: B1
Experiment: polymerase ribozyme fitness, log enrichment relative to wild type (log ratio); higher = more active; in vitro selection for triplet polymerase activity
Method in brief: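 Frozen incubation at −7 °C formed the core of a single, triplicate in vitro selection round applied to PCR-built, transcribed mutant libraries of each subunit of a heterodimeric triplet polymerase ribozyme. Extended constructs were gel-excised, captured with streptavidin beads and amplified by RT-PCR, and input and output libraries were Illumina-sequenced with a filter of ≥10 input reads and ≥1 read per output. Fitness is the logarithm of genotype enrichment relative to wild-type enrichment, with inverse-variance-weighted replicate averaging, and the logarithm is base 2.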

Variant	polymerase ribozyme fitness (log ratio)
A12C U15C C35U G58A U90C G126U	≤ -4.2
G11A U55G U56A U102A	-3.42
A12G C18G A21U G68C G83A A97U C125U G140U G143U	≤ -4.2
C10U A21G G48A G83C G94U U144A	≤ -4.2
A12G A20U C103A C116A A121U C129A	≤ -4.2
A12G C85A C118A	-0.759
C10U A12U A21C A39U G71A A106C C125G G141A	≤ -4.2
G11U G74A C85A U90C G141A U148C	≤ -4.2
G11A C105U	-1.12
G11A C123U A142U	-1.6
G11C A30U U82C	≤ -4.2
G11C A17U A23U C38U C95U A138G	≤ -4.2
A12C A29C G81U C87A	≤ -4.2
C10G C57A C108A A115G U134A G136U	≤ -4.2
C10U A16U C18U G71C C108G	≤ -4.2
C10U U56A G67C G86C C96A G126U	≤ -4.2
A12G C35A G74A U101A A147U	≤ -4.2
G11U C85A G86U U134G A150G	≤ -4.2
C10G C96G	-3.62
C10G C96U	-2.78
C10A A40U G67U G81C C149G	≤ -4.2

Variant	polymerase ribozyme fitness (log ratio)
C10A G48A U56G C79G C96A G143C	≤ -4.2
G11A	-0.693
G11C	-1.36
G11U	-0.242
G11A A41C G83C C123G	-2.58
C10U C14U C54U C72U U78A C79U G94C A97U	≤ -4.2
C10G A19G A37G G42C C57U G59A C129A	≤ -4.2
G11A A12G A52G U56A G81U	-2.09
G11A C96G	-1.49
C10U U13G C14A A28C C54U G92C A113U A122G C129U	≤ -4.2
A12G A17C G50C C63G C96U	-0.474
C10G A47G A49G G71A C87U A97U A106G A107C U111G U134C	≤ -4.2
C10U A52C U55A A97G A98G C129U	≤ -4.2
C10G G65U G88C C105U C114A	≤ -4.2
A12C C93U A120G	-0.829
C10A G25A A29U A89C G92U C108U A113U G117C	≤ -4.2
G11C C85U A97U G124C	-3.4
C10G U82C G94U U102C A107C A138U	≤ -4.2
G11U A97G C103A U146A	-4.09
C10A G83C	-3.94
A12C A22G C54A G70U G100A C116G G117A U135G	≤ -4.2

Variant	polymerase ribozyme fitness (log ratio)
G11U A28G A41U U61G G68A C96U A97C C108U G143U C149A	≤ -4.2
G11C C38G C87A C95U G100U C105U C118A C129G G133U	≤ -4.2
A12C U61A G84U A97U U145C	≤ -4.2
C10U G83A	-3.44
C10U A40C G42C A49G G58U G83C G92A A107C G141C C149G	≤ -4.2
G11U A40U G84A C132A G143C	≤ -4.2
G11U A28C A49C C51A U53A C57U C95A G140A	≤ -4.2
C10G A17U C54G C93U A106C C125A	≤ -4.2
C10G A22U	-3.34
C10U A17U	-3.22
C10U A17C	-2.07
C10A U102G U139G A150U U151G	≤ -4.2
G11U A12U A30U U55A C85U C95U A142U	≤ -4.2
C10U C18U A39U A49U U61A G68U U82G A110U G133A	≤ -4.2
A12G A20U A41C C57A A66U C69G A91U C129U	≤ -4.2
C10U A39C U77A G84A C95U A120U	≤ -4.2
G11A G83A G94U G128U U145G	≤ -4.2
A12C U56A G59C C96A U101C	-0.609
C10U C14G U15G A29C C38U G58A A91G U127G C149U	≤ -4.2
A12C A29G C93U U104A U134A	≤ -4.2
G11U C57U G58A U104G C105U	-3.72

Variant	polymerase ribozyme fitness (log ratio)
A12G C36U A37C G59C U102A C118G A120C U146A	≤ -4.2
G11U C32A C54U C57U G92C U148G U151G	≤ -4.2
C10U A52G G67U C69A	≤ -4.2
C10G G86A	-3.52
G11C C93A	-3.87
A12C A19U G80U A89G C96A	≤ -4.2
G11A A26C U33G C129A	≤ -4.2
C10G U55A U148A A150C	≤ -4.2
A12G A21C C32U U55G	-1.77
G11A G86U C93G	-1.46
C10G U53A	-3.48
C10A C14G U53A C57A G84A C99U G126A	≤ -4.2
C10G C18G A19C C87A A98U A115U G117U	≤ -4.2
C10G G48A G80A G84A A91C C114U C125U A142C	≤ -4.2
C10U G59C C85A C116G A138C	≤ -4.2
C10G U77C U90A A119G A137G	≤ -4.2
A12C U145C	0.192
G11C A40G U82A G94C G140U	≤ -4.2
A12C C43A C57A G84A U139G A147U	≤ -4.2
G11U A29C C35U U45A A66G A91U	-3.98
C10G C38U C95A	≤ -4.2
